Values of other authors, collected in US20020001615A1, “Combined interferon alfa and lipsosmal-encapsulated all-trans retinoic acid, including preparation and use” (Aronex Pharmaceuticals, Inc., priority 2000, published 2002).
Like-named read-outs stand apart in the source and are kept apart here.

Assays:
[1] = after three months on therapy, concomitant IFN

Which “peak levels of atra in the serum” value [1] does the source give for `CC1=C(/C=C/C(C)=C/C=C/C(C)=C/C(=O)O)C(C)(C)CCC1` [ATRA, all-trans retinoic acid] here?
The value was “declined”.

Which results are given for Interferon alfa-2b?
stable for (time) (at 30° C.): up to 14 days; stable for (time) (at 35° C.): up to 7 days
